For 15 molecules, binding result and Kd results are on record in patent publication US20140363808, “[…] […] METHOD BASED ON […] WITHOUT TARGET IMMOBILIZATION AND THE […] OBTAINED FROM THE METHOD” (KOREA UNIVERSITY RESEARCH AND BUSINESS FOUNDATION, published 2014).

Usually Kd stands for the free concentration of one partner at which half of the binding sites on the other are occupied at equilibrium, for simple one-to-one binding. High values mean a looser complex, low ones a tighter complex.

Common to all, as to conditions: tags: AdipoGen AG-40A-0031; chain copies: 2
The target of data set [1] is T1, Nampt (nicotinamide phosphoribosyltransferase) (UniProt P43490 P43490:1-491). As to the kind of experiment: SPR; 200 nM Nampt. How it is done:
An experiment showing that 15 kinds of aptamers strongly bound to Nampt were not bound to other blood proteins but specifically bound to Nampt only was carried out by immobilizing aptamers onto a gold chip with a surface […] resonance device (SPR).
Firstly, a carboxyl group (—COOH) was formed on a surface of a gold chip with 50 mM of 3,3′-dithiodipropionic acid, and a self-assembly monolayer was formed with EDC/NHS. Then, streptavidin was immobilized thereon, and each aptamer bound to biotin was immobilized. Herein, 200 nM Nampt and the controls, i.e., RBP4, adiponectin, resistin, vaspin, and HAS, were reacted for 30 minutes in respective buffer solutions (100 mM NaCl, 2 mM MgCl₂, 5 mM KCl, 1 mM CaCl₂, and 20 mM Tris-Cl buffer solution containing 0.02% Tween 20, pH 7.6), and non-bound proteins were washed off with the same buffer solutions.
For orientation: SPR reads the build-up and loss of mass on a sensor chip optically.

The target in data set [2] is T1, Nampt (nicotinamide …). As to the kind of experiment: SPR; aptamer immobilized; same buffer pH 7.6. How it is done:
(§1) Aptamers G35, G40, and G55 had the highest specificity and binding force among the 15 kinds of aptamers specifically bound to Nampt and produced in Example 1. Binding of these aptamers with respect to Nampt was analyzed. The aptamers were immobilized onto a gold chip in the same manner as described above, and Nampt at various concentrations of 20 nM to 400 nM was reacted for 30 minutes in buffer solutions (100 mM NaCl, 2 mM MgCl₂, 5 mM KCl, 1 mM CaCl₂, and 20 mM Tris-Cl buffer solution containing 0.02% Tween 20, pH 7.6). In order to obtain a dissociation constant, each reaction level was plotted by a nonlinear regression method and a single site saturation ligand binding method with Graphpad Prism 5.0. In this case, the equation Y=Bₘₐₓ*X̂h/(Kd̂h+X̂h) was used (y represents a saturation degree, Bₘₐₓ represents a maximal binding site, Kd represents a dissociation constant, X represents non-bound Nampt, and h represents a hill slope constant).

Data set [3] has as its target T1, Nampt (nicotinamide …). As to the kind of experiment: SPR; aptamer immobilized; 100 mM NaCl, 2 mM MgCl2, 5 mM KCl, 1 mM CaCl2, 20 mM Tris, 0.02% Tween 20, pH 7.6. How it is done: as §1

T1 sequence (P43490 whole entry, one chain of several): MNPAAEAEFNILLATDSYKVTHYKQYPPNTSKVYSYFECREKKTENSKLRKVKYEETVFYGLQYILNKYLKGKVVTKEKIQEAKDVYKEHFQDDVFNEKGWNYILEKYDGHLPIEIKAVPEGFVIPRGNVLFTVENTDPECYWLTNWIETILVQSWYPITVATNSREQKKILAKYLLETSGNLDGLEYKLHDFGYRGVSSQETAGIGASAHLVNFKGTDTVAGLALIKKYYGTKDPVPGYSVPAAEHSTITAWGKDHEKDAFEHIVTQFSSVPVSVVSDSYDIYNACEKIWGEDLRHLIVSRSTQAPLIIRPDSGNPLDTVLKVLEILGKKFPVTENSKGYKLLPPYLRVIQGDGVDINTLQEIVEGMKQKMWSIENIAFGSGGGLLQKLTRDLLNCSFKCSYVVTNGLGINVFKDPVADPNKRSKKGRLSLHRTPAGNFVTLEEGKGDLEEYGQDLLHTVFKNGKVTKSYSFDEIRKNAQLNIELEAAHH

B1: G54 (ssDNA)
DNA: CGTACGGAATTCGCTAGCGTGGCGGGGCGCGGGTGCCGGAGTTGATGTGGATCCGAGCTCCACGTG
For the molecule B1, the binding result with Nampt (nicotinamide …) [1] is recorded as “binds”.

B2: G56 (ssDNA)
DNA: CGTACGGAATTCGCTAGCCCGTGGGGTAGCGGGGTCGTGTGATATGTGGATCCGAGCTCCACGTG
For B2, in the data set with Nampt (nicotinamide …) [1], the binding result is “binds”.

B3: G21 (ssDNA)
DNA: CGTACGGAATTCGCTAGCGGGTTCGGGACGGATGAACGTGATAGCTGAGGATCCGAGCTCCACGTG
Turning to B3, in the data set with Nampt (nicotinamide …) [1], the binding result is on record as “binds”.

B4: G27 (ssDNA)
DNA: CGTACGGAATTCGCTAGCGGGTGGAGTACGTGGGGGTCATCCTGTGTGGGATCCGAGCTCCACGTG
For the molecule B4, the binding result in the data set with Nampt (nicotinamide …) [1] is reported as “binds”.

B5: G4 (ssDNA)
DNA: CGTACGGAATTCGCTAGCGTGATGTGGGGGTACGCTCGTGGCAGGCTTGGATCCGAGCTCCACGTG
Consider B5, for which the binding result in the data set with Nampt (nicotinamide …) [1] was “binds”.

B6: G12 (ssDNA)
DNA: CGTACGGAATTCGCTAGCGGGTGCCGTGGCACGAGGCCGTGGTCCAGGGGATCCGAGCTCCACGTG
As to B6, in the data set with Nampt (nicotinamide …) [1], the binding result is on record as “binds”.

B7: G15 (ssDNA)
DNA: CGTACGGAATTCGCTAGCAGCCGGCGGGTGCTCAATGTTGGGGGTTGGGATCCGAGCTCCACGTG
On to B7, for which the binding result with Nampt (nicotinamide …) [1] is listed as “binds”.

B8: G39 (ssDNA)
DNA: CGTACGGAATTCGCTAGCGGTTGCCGTGCGGCGTGCGAGTTGGGCCTTGGATCCGAGCTCCACGTG
For the molecule B8, the binding result with Nampt (nicotinamide …) [1] is listed as “binds”.

B9: G9 (ssDNA)
DNA: CGTACGGAATTCGCTAGCGGGGATGGGCCGCTCTGCAGAATGTTCTGTGGATCCGAGCTCCACGTG
Regarding B9, in the data set with Nampt (nicotinamide …) [1], the binding result is “binds”.

B10: G26 (ssDNA)
DNA: CGTACGGAATTCGCTAGCATCGGGTGCAGAGTCGGAGCTAACGGCAGCGGATCCGAGCTCCACGTG
Consider B10, for which, in the data set with Nampt (nicotinamide …) [1], the binding result is on record as “binds”.

B11: G35 (ssDNA)
DNA: CGTACGGAATTCGCTAGCGGTGACGGACGTGGGGTGCACGAAGGGAGGGGATCCGAGCTCCACGTG
B11: in the data set with Nampt (nicotinamide …) [2], the dissociation constant Kd came out at 117 nM.

B12: G32 (ssDNA)
DNA: CGTACGGAATTCGCTAGCGTGGACTGGCGGAAATCTTGGTATGCCCATGGATCCGAGCTCCACGTG
With B12, the binding result with Nampt (nicotinamide …) [1] is “binds”.

B13: G40 (ssDNA)
DNA: CGTACGGAATTCGCTAGCCGGGGTGGGAACCAGTCTTGCGCGGGTGACGGATCCGAGCTCCACGTG
Molecule B13 gave a Kd with Nampt (nicotinamide …) [2] of 114 nM.

B14: G55 (ssDNA)
DNA: CGTACGGAATTCGCTAGCGGACTGGAGTCTAGACCGGGTAGCTGTGGTGGATCCGAGCTCCACGTG
On to B14, for which the affinity with Nampt (nicotinamide …) [3], expressed as Kd, was 71.7 nM.

B15: G37 (ssDNA)
DNA: CGTACGGAATTCGCTAGCGGGCGATGTGCGGAATGTGGGATTGCGGGTGGATCCGAGCTCCACGTG
For B15, in the data set with Nampt (nicotinamide …) [1], the binding result is listed as “binds”.
